Data from paper PMC5504672.

Tests used:
[1] = biological target: T1, IolQ-His6 (DegA) (Bacillus subtilis 168) (UniProt P37947); experiment: DNase I footprinting; conditions: 10 mM Tris-HCl pH 8.0, 1 mM DTT, 10 mM KCl, 5 mM MgCl2, 10% glycerol, 5 ug/ml poly d(I-C), 50 ug/ml BSA, 37 C, 30 min; DNA 0.155 pmol in 0.02 ml (EMSA) or …
T1 sequence: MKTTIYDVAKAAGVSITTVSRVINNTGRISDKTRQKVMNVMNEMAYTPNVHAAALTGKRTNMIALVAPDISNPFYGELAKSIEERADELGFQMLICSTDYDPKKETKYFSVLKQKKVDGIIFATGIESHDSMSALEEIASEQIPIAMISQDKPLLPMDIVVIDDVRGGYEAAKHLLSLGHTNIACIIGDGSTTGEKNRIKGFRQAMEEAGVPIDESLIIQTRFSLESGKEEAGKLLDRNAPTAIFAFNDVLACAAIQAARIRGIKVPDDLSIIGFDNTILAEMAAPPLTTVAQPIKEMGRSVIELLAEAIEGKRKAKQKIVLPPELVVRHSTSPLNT

[2] = biological target: T1, IolQ-His6 (DegA) (Bacillus subtilis 168); experiment: EMSA; conditions: 10 mM Tris-HCl pH 8.0, 1 mM DTT, 10 mM KCl, 5 mM MgCl2, 10% glycerol, 5 ug/ml poly d(I-C), 50 ug/ml BSA, 37 C, 30 min; DNA 0.155 pmol in 0.02 ml (EMSA) or …

## GAGCTTGTAGTCAGACATTCTACATCACCGCTCAACACATGAGCCCGCTAATGAGCGGGTTTTTTCATTATGACAGTTGAAGCCAAAAAAACATATTGCGTGTAAACCAAAGGCGGTGTAAAATATAACCATCTTTTGAGAAAGCGCTTGCGCAAAATGGCAGAGCGGATAGAACCGCTGTTTTTTTAGCTGTTAAGAGAAAACGCTTTCTCAAAGCGAGCCCGAAATGAGATAAAGGAGAGGATGGGACGTGGAACATCAAGTAAGATGTGCAGTATTGGGATTAGGAAGGCTCGGTTA (double strand) [iolX promoter 300 bp footprint probe, high affinity region]
[1]
  binding: binds

## ATGAGCGGGTTTTTTCATTATGACAGTTGAAGCCAAAAAAACATATTGCGTGTAAACCAAAGGCGGTGTAAAATATAACCATCTTTTGAGAAAGCGCTTGCGCAAAATGGCAGAGCGGATAGAACCGCTGTTTTTTTAGCTGTTAAGAGAAAACGCTTTCTCAAAGCGAGCCCGAAATGAGATAAAGGAGAGGATGGGAC (double strand) [iolX promoter 200 bp]
[2]
  binding: binds
